According to the DeepSol protein solubility set:

Test: soluble on expression in E. coli; label from the status in PepcDB or PDB records

Sequence: SQFKWSDFRILDRVSIGHGGRADELVFEAIVQVPDSPLFNQGVVLRKLNTTRAQRRGRRAIEVFKKLVRRRLLYHSYSMQVHGYITNNLSDDQYSFTLVHGCHGSFSIRHWLQQSDWIPTLEATLALDEESFRRVGDDTTGGPAVSRQLRLIRTLMRDILIGVNYLHSHGLAHTELRLENVHISPVDRHIKVGILGNAADFNGDVPSTSNAYSTMDRRQMMIAFDMRCVGFMMAKMVLQELMDPLIFAKLKSFLAKGNDPSSLREFFVTTLNTNSESGNTGVQILDRNWGAGWHLLSLLIATRPSERISCLDALKHPFLCGPRWRVAPSMDIIRWGLGSTAVKISEEYIYRMPQRQRLAHFIGLMEMLNPYPKPNCWLELLPGRWRLLYSTGKHIGLTLRQPSTRALIGNVHLTITRASESINNTSLSFTSDIRFTAITSKDWPHNKIGAAGKLQTLSQFRLIAGKRLYLKEEKKNIGKFSMGEPDAEEGLAEKLETEKWKKVVPFKEFPSSLPVAKLVSGEIEVTMNMNDHIDSPGSVIGEVRKQIPPEMFDLSKLVCGTYIDSRLLVLRCVNGSALLFTRSSLDHKSM
- soluble on expression in E. coli: soluble

Sequence: MTIAKDYRTIYRNQIKKQIRLNQEHLQSLTHLGSQINFEVDPPKLPDPDPARKVFFFDIDNTLYRKSTKVQLLMQQSLSNFFKYELGFDDDEAERLIESYYQEYGLSVKGLIKNKQIDDVLQYNTFIDDSLPLQDYLKPDWKLRELLINLKKKKLGKFDKLWLFTNSYKNHAIRCVKILGIADLFDGITYCHYDRPIEEEFICKPDPKFFETAKLQSGLSSFANAWFIDDNESNVRSALSMGMGHVIHLIEDYQYESENIVTKDHKNKQQFSILKDILEIPLIMDVEVYRPSSIAIKEMEELEEEGEAVNWSNQQINVQSS
- soluble on expression in E. coli: soluble

Sequence: MSLKIAKVEALSVAMGDGTGWMPTSAFVRITAEDGTVGWGEASPMLGGIASLGVVARDIAPFLEGQEVLDHAVLLDRMMHRLVKLGPEGIATAALAACDIALWDLKGKLLGQPIYKLLGGAWRTRLPCYSSIGGNAARSVDEVVREVARRVEAEQPAAVKIRWDGDRTRCDVDIPGDIAKARAVRELLGPDAVIGFDANNGYSVGGAIRVGRALEDLGYSWFEEPVQHYHVGAMGEVAQRLDITVSAGEQTYTLQALKDLILSGVRMVQPDIVKMGGITGMMQCAALAHAHGVEFVPHQTQPGVGHFANIHVLSTLMHMTKPVELADRWDRGRPVFRNPAEPVDGHFALGDAPGLGIVVDEDELASRATEITVGRDQRPPAGGQYEGHHHHHH
- soluble on expression in E. coli: soluble

Sequence: MGSDKIHHHHHHMIDTFERTGPLMEASSYPAWAQQLINDCSPAKARVVEHELYQQMRDAKLSPQIMRQYLIGGWPVVEQFAVYMAKNLTKTRFGRHPGEDMARRWLMRNIRVELNHADYWVNWCAAHDVTLEDLHDQRVAPELHALSHWCWQTSSSDSLAVAMAATNYAIEGATGEWSAVVCSTGVYAEAFAEETRKKSMKWLKMHAQYDDAHPWEALEIICTLVGNKPSLQLQAELRQAVTKSYDYMYLFLERCIQLDKVKSPRGRVAALEM
- soluble on expression in E. coli: not soluble

Sequence: MGSDKIHHHHHHMNNIQAIRKKVETQIDDLQNKTDEIAEFNQAKVLDAFQENKVSDFHFHPSTGYGYDDEGRDTLERVYATVFKTEAALVRPQIISGTHAISTVLFGILRPDDELLYITGQPYDTLEEIVGIRKQGQGSLKDFHIGYSSVPLLENGDVDFPRIAKKMTPKTKMIGIQRSRGYADRPSFTIEKIKEMIVFVKNINPEVIVFVDNCYGEFVEYQEPPEVGADIIAGSLIKNPGGGLAKTGGYIAGKEALVDLCGYRLTTPGIGREAGASLYSLLEMYQGFFLAPHVTAQAIKGARFTAAMLAEFGVEADPVWDAPRTDLIQSVSFHNKEKMVAFAQAIQAASPVNAHVLPIGAYMPGYEDDVIMAAGTFIQGASLELTADGPIREPYQLYVQGGLTYEHIKIAVTRAIQKIV
- soluble on expression in E. coli: not soluble

Sequence: MRLRVDVIPGEHLAYPDVVLVVDVIRATTTAAAFLEAGAEALYWTPSLESALAFKDEDVVLAGETGGLKPPRFDLGNSPREALSAQVAGRVVVMSTTNGTKAAHAAARTAKHVLLASLYNAHAAARLARELATEEVAILCAGKEGRAGLDDLYTAGVLAEYLGFLGEVEPEDGARVALAVKRAYPDPLEALSLSAAALALKQVGLEADVPFCAQVAKSAAVPVLRGRVGEALIFKRA
- soluble on expression in E. coli: soluble

Sequence: MISNQILQNTIEGIKSISRVDLHVADTDGKIIASTSQLGDEFGHAIISFVNSPADSQSVQEYQFFKVYDESQLELILIAQGTSDDVFMVGKMAAFQIQNLLVAYKERFDKDNFIKNLLLDNLLLVDIYNRSKKLYIDVDARRCVCIIETKNEKDSVALETVRTLFSGNKKDFITAVDEKSIILVKELEEKQGYEDIEKIARTIVDMLNTEAMVKATVAYGTIVKEIKEVSRSYKEARMALDVGKIFFSTKNVIAYNNLGIGRLIYQLPIPLCKMFISEIFEGKSPDEFDEETLTTINKFFENSLNVSETSRQLYIHRNTLVYRLDKLQKSTGLDLRVFEDAITFKIALMVVKYMKYMENTDF
- soluble on expression in E. coli: not soluble

Sequence: DMRVVSVNPAARRLLDLPDDYIPIERPLEEVCAKIPFGPDELGEGESRTWRLPTAEVRRITRMRFFDRSFSRLFFSIETLTEELHSAEKEAYEKLIRLIAHEVNNSTAGIIGVLNAVGDAFDDTPHTPEGEVSEAIALCRDRCMAMSRFITRFAEVVKLPDPTLSSVDLVPLCERCILLMQPLAVETGVKMKMCKEQDSCLVRCDAEQIEQVVINLLRNAIESFAQQNDLAVSATKTVLLCLDRHNLLVEDNGQPISDDVATRLFTPFFSTKPNGQGIGLVVIREVLTRHGWSFSLTTDADGRTRFRMAWP
- soluble on expression in E. coli: not soluble

Sequence: GAMDTMESIVLNTIVTGLQEPKKEFIARVIKTIGSQRSLQLYENAMKVENSGGLLTADMSRRKTIGGVFCYLLKQLVAEDQITIQEWNYIRQEEKERINAKNILKRNNRRCQV
- soluble on expression in E. coli: soluble

Sequence: MGSDKIHHHHHHMKIYIMKQQMRQAKRVNYLDEHLNCLFYNGNPEIGFRHLTLQKGKTWCELSAKNNYFFFLLEGALIVDFNECVGYEVGKGEMIYLPRSADFKIFAKESADLIILSYGIPVQLCDKLSLSQLGAFITDFKYEFKSLDIRVPLDTFLKLLVKYLDSGMSCQHMHELKQKELFLILRAYYTKEEKVNFFYHSIAASLTFKDKVMGVYLEARTVQELADKCGYGLKTFQRLFYSCFSEVPSKWLMKQKAQHVKARLLDRDIPIKVILDEFGFSTYANFCNYCKRYVGDTPRNIRESVTLGFRK
- soluble on expression in E. coli: not soluble

Sequence: MSKRLPPLNALRVFDAAARHLSFTRAAEELFVTQAAVSHQIKSLEDFLGLKLFRRRNRSLLLTEEGQSYFLDIKEIFSQLTEATRKLQARSAKGALTVSLLPSFAIHWLVPRLSSFNSAYPGIDVRIQAVDRQEDKLADDVDVAIFYGRGNWPGLRVEKLYAEYLLPVCSPLLLTGEKPLKTPEDLAKHTLLHDASRRDWQTYTRQLGLNHINVQQGPIFSHSAMVLQAAIHGQGVALANNVMAQSEIEAGRLVCPFNDVLVSKNAFYLVCHDSQAELGKIAAFRQWILAKAAAEQEKFRFRYEQ
- soluble on expression in E. coli: soluble

Sequence: MSANNTAKNMHPETRAVGSETSSLQASQDEFENLVRNVDVKSRIMDQYADWKGVRYRLGGSTKKGIDCSGFVQRTFREQFGLELPRSTYEQQEMGKSVSRSNLRTGDLVLFRAGSTGRHVGIYIGNNQFVHASTSSGVIISSMNEPYWKKRYNEARRVLSRSLEHHHHHH
- soluble on expression in E. coli: soluble

Sequence: MFSLRDAKCGQTVKVVKLHGTGALKRRIMDMGITRGCEIYIRKVAPLGDPIQINVRGYELSLRKSAAEMIEVE
- soluble on expression in E. coli: not soluble

Sequence: MRGSHHHHHHTDPALRAPKSVIIPAGSSAPLAPFVPGTLADGVVYVSGTLAFDQHNNVLFADDPKAQTRHVLETIRKVIETAGGTMADVTFNSIFITDWKNYAAINEIYAEFFPGDKPARFCIQCGLVKPDALVEIATIAHIAKGLCGR
- soluble on expression in E. coli: soluble

Sequence: MPNMGIEKLYVSQQLTDSAAGMTFTKPQYYKYVQELSLKPKVNSASAYAENRKVDQDTQFDSCDVSINLFQMTSSQRAFMLGQSLAGGGGAIGALNDKAPWITLLYKAPIKVDDTIYYRYGVIYKTQFQPPDDDYKTTEGKPDFSQVPKISGSAQPTEWSFKDGKLEKHPWEWHVDTCDPNCPENIDDTWFNSVSIPSLVTYGSLSLSASSPKDGATGISLDTKPSLTFNNPIMNATSILLYNVSDGATVNTTTSSDSSGKIITITPSTNLVANKNYVLVVQDVTDLYGQTLDTQLIRFTTATAASLEHHHHHH
- soluble on expression in E. coli: soluble

Sequence: GSCSSKPANTAKGEKGSDKTGKDLELKLSFQEGIAPGESLNEKLDFMEKLGVVGFEPGGGGLAGRVNEIKQALNGRNIKVSAICAGFKGFILSTDPAIRKECMDTMKEIIAAAGELGSTGVIIVPAFNGQVPALPHTMETRDFLCEQFNEMGTFAAQHGTSVIFEPLNRKECFYLRQVADAASLCRDINNPGVRCMGDFWHMTWEETSDMGAFISGGEYLQHVHVASRKRRSMPGEDGDADNYINGFKGLKMIGYNNYVSFECGCQGDRNVVVPAAVKLLREQWEQA
- soluble on expression in E. coli: soluble

Sequence: MNTPLKRFFKIGYVIENFLHPYHNKKLLPLSRGVNIKGIFVLLNTLWRVFQDGSLQDLWSFT
- soluble on expression in E. coli: not soluble

Sequence: MAFERQGKIEKKISYSLFLNGPNVHFGSILFGAVDKSKYAEELCTHPMRQAYNTLDSNSRIIITVQSVAILDGKLVW
- soluble on expression in E. coli: not soluble

Sequence: MTATATEGAKPPFVSRSVLVTGGNRGIGLAIAQRLAADGHKVAVTHRGSGAPKGLFGVEVDVTDSDAVDRAFTAVEEHQGPVEVLVSNAGLSADAFLMRMTEEKFEKVINANLTGAFRVAQRASRSMQRNKFGRMIFIGSVSGLWGIGNQANYAASKAGVIGMARSIARELSKANVTANVVAPGYIDTDMTRALDERIQQGALQFIPAKRVGTPAEVAGVVSFLASEDASYISGAVIPVDGGMGMGH
- soluble on expression in E. coli: soluble

Sequence: MGSDKIHHHHHHMRISLSTGTLFTFPLGKVMAIARDAGFDGVELIVNQDFQKVNCRTLIRELAEILPIHSMHAPFMPLDGWGSSIDSLKRCVELSADCGVQLVNFHPPSWMGFELGFWRWLYRVMDFQKEVGQGGVIVTLENMPWVGKRVRMNPHILSSTTKFIDFIQERNLFMTFDTTHMGSGKANFINDFYLCYNSGRIRNIHFSDYGHGREHLLPGHGILPLTRFLNHLRSTGYNDTLTLELSPEEFPRDERIIVESLREILSYLRKETEHPIP
- soluble on expression in E. coli: not soluble

Sequence: MSLTTLHFSGFPRVGAFRELKFAQEKYWRKEISEQELLAVAKDLREKNWKHQVAANADFVAVGDFTFYDHILDLQVATGAIPARFGFDSQNLSLEQFFQLARGNKDQFAIEMTKWFDTNYHYLVPEFHADTEFKANAKHYVQQLQEAQALGLKAKPTVVGPLTFLWVGKEKGAVEFDRLSLLPKLLPVYVEILTALVEAGAEWIQIDEPALAVDLPKEWVEAYKDVYATLSKVSAKILLSTYFGSVAEHAALLKALPVDGLHIDLVRAPEQLDAFADYDKVLSAGVIDGRNIWRANLNKVLETVEPLQAKLGDRLWISSSCSLLHTPFDLSVEEKLKANKPDLYSWLAFTLQKTQELRVLKAALNEGRDSVAEELAASQAAADSRANSSEIHRADVAKRLADLPANADQRKSPFADRIKAQQAWLNLPLLPTTNIGSFPQTTEIRQARSAFKKGELSAADYEAAMKKEIALVVEEQEKLDLDVLVHGEAERNDMVEYFGELLSGFAFTQYGWVQSYGSRCVKPPIIFGDVSRPEAMTVAWSTYAQSLTKRPMKGMLTGPVTILQWSFVRNDIPRSTVCKQIALALNDEVLDLEKAGIKVIQIDEPAIREGLPLKRADWDAYLNWAGESFRLSSAGCEDSTQIHTHMCYSEFNDILPAIAAMDADVITIETSRSDMELLTAFGEFQYPNDIGPGVYDIHSPRVPTEAEVEHLLRKAIEVVPVERLWVNPDCGLKTRGWKETLEQLQVMMNVTRKLRAELAKEGHHHHHH
- soluble on expression in E. coli: not soluble
